The results in this text go back to paper PMC4844702, “Selective inhibition of the kinase DYRK1A by targeting its folding process” (Nature Communications, 2016).

For the assay, the target named is CDC37 (UniProt Q16543). Briefly: anti-FLAG plate capture, CDC37-nanoKAZ luminescence. The note with it: reference: wild type.

For the substance “DYRK1A (from UniProt Q13627) K188R kinase-dead”, the fold change (sites S97) turned out to be 54.
On the same count and under the same terms, next, DYRK1A (from UniProt Q13627) S97A: 2.2.
Take “DYRK1A (from UniProt Q13627) Y319F/Y321F”: the fold change (sites Y319,Y321) was found to be 6.2.
Take DYRK1A (from UniProt Q13627) Y321F: the fold change (sites Y321) was determined as 5.2.
